Laboratory results reported in the RNAGym collection of RNA variant scans (doi:10.7554/elife.80360).

B1: CPEB3 Ribozyme (parent)
chain: GGGGGCCACAGCAGAAGCGUUCACGUCGCGGCCCCUGUCAGAUUCUGGUGAAUCUGCGAAUUCUGCUGU

Variants of: B1
Test: self-cleavage, relative activity (ratio to wild type); higher = more cleavage; co-transcriptional

Variant | self-cleavage
GGGUGCCAGAGCAGAAGCGUUCACGUCGCGGCCCCUGUCAGAUUCUGGUGAAUCUGCGAAUUCUGCUGU | 0.974
GGGUGCCAAAGCAGAAGCGUUCACGUCGCGGCCCCUGUCAGAUUCUGGUGAAUCUGCGAAUUCUGCUGU | 0.982
GGGUGCCACAGCAGAAGCGUUCACGUCGCGGCCCCUGUCAGAUUCUGGUGAAUCUGCGAAUUGUGCUGU | 0.292
GGGUGCCACAGCAGAAGCGUUCACGUAGCGGCCCCUGUCAGAUUCUGGUGAAUCUGCGAAUUCUGCUGU | 0.11
GGGUGCCACAGCAGAAGCGUUCACGUUGCGGCCCCUGUCAGAUUCUGGUGAAUCUGCGAAUUCUGCUGU | 0.114
GGGUGCCACAGGAGAAGCGUUCACGUCGCGGCCCCUGUCAGAUUCUGGUGAAUCUGCGAAUUCUGCUGU | 0.182
GGGUGCCACAGAAGAAGCGUUCACGUCGCGGCCCCUGUCAGAUUCUGGUGAAUCUGCGAAUUCUGCUGU | 0.255
GGGUGCCACAGUAGAAGCGUUCACGUCGCGGCCCCUGUCAGAUUCUGGUGAAUCUGCGAAUUCUGCUGU | 0.819
GGGUGCCACAGCAGAAGCGUUCACGUCGCGGCCCCUGUCAGAUUCUGGUGAAUCUGCGAUUUCUGCUGU | 0.219
GGGUGCCACAGCAGAAGCGUUCACGUCGCGGUCCCUGUCAGAUUCUGGUGAAUCUGCGAAUUCUGCUGU | 0.436
GGGUGCCACAGCAGAAGCGUUCACGUCGCGGGCCCUGUCAGAUUCUGGUGAAUCUGCGAAUUCUGCUGU | 0.129
GGGUGCCACAGCAGAAGCGUUCACGUCGCGGACCCUGUCAGAUUCUGGUGAAUCUGCGAAUUCUGCUGU | 0.135
GGGUGGCACAGCAGAAGCGUUCACGUCGCGGCCCCUGUCAGAUUCUGGUGAAUCUGCGAAUUCUGCUGU | 0.0353
GGGUGACACAGCAGAAGCGUUCACGUCGCGGCCCCUGUCAGAUUCUGGUGAAUCUGCGAAUUCUGCUGU | 0.0552
GGGUGCCACAGCAGAAGCGUUCACGUCGCGGCCCCUGUCAGAUUCUGGUGAAUUUGCGAAUUCUGCUGU | 0.709
GGGUGCCACAGCAGAAGCGUUCACGUCGCGGCCCCUGUCAGAUUCUGGUGAAUGUGCGAAUUCUGCUGU | 0.21
GGGUGCCACAGCAGAAGCGUUCACGUCGCGGCCCCUGUCAGAUUCUGGUGAAUAUGCGAAUUCUGCUGU | 0.289
GGGUGCCACAGCAGAAGUGUUCACGUCGCGGCCCCUGUCAGAUUCUGGUGAAUCUGCGAAUUCUGCUGU | 0.257
GGGUGCCACAGCAGAAGGGUUCACGUCGCGGCCCCUGUCAGAUUCUGGUGAAUCUGCGAAUUCUGCUGU | 0.0879
GGGUGCCACAGCAGAAGCGUUCACGUCGCGGCCACUGUCAGAUUCUGGUGAAUCUGCGAAUUCUGCUGU | 0.167

Variant | self-cleavage
GGGUGCCACAGCAGAAGCGUUCACGUCGCGGCCGCUGUCAGAUUCUGGUGAAUCUGCGAAUUCUGCUGU | 0.113
GGGUGCCACAGCAGAAGCGUUCACGUCGCGGCCUCUGUCAGAUUCUGGUGAAUCUGCGAAUUCUGCUGU | 0.361
GGGUGCCACAGCAGAAGCGUUUACGUCGCGGCCCCUGUCAGAUUCUGGUGAAUCUGCGAAUUCUGCUGU | 0.0611
GGGUGCCACAGCAGAAGCGUUAACGUCGCGGCCCCUGUCAGAUUCUGGUGAAUCUGCGAAUUCUGCUGU | 0.065
GGGUGCCACAGCAGAAGCGUUCACGUCGCGGCCCCUGUCAGAUUCUGGUGAAUCUGUGAAUUCUGCUGU | 0.211
GGGUGCCACAGCAGAAGCGUUCACGUCGCGGCCCCUGUCAGAUUCUGGUGAAUCUGGGAAUUCUGCUGU | 0.165
GGGUGCCACAGCAGAAGCGUUCACGUCGCGGCCCCUGUCAGAUUUUGGUGAAUCUGCGAAUUCUGCUGU | 0.743
GGGUGCCACAGCAGAAGCGUUCACGUCGCGGCCCCUGUCAGAUUAUGGUGAAUCUGCGAAUUCUGCUGU | 0.554
GGGUGCCACAGCAGAAGCGUUCACGUCGCGGCCCCUGUCAGAUUGUGGUGAAUCUGCGAAUUCUGCUGU | 0.587
GGGUGCUACAGCAGAAGCGUUCACGUCGCGGCCCCUGUCAGAUUCUGGUGAAUCUGCGAAUUCUGCUGU | 0.233
GGGUGCCACAGCAGAAGCGUUCACGUCGAGGCCCCUGUCAGAUUCUGGUGAAUCUGCGAAUUCUGCUGU | 0.0776
GGGUGCCACAGCAGAAGCGUUCACGUCGCGGCACCUGUCAGAUUCUGGUGAAUCUGCGAAUUCUGCUGU | 1
GGGUGCCACAGCAGAAGCGUUCACGUCGCGGCUCCUGUCAGAUUCUGGUGAAUCUGCGAAUUCUGCUGU | 0.975
GGGUGCCACAGCAGAAGCGUUCAGGUCGCGGCCCCUGUCAGAUUCUGGUGAAUCUGCGAAUUCUGCUGU | 0.0638
GGGUGCCACAGCAGAAGCGUUCAAGUCGCGGCCCCUGUCAGAUUCUGGUGAAUCUGCGAAUUCUGCUGU | 0.122
GGGUGCCACAGCAGAAGCGUUCACGUCGCGGCCCCUGUAAGAUUCUGGUGAAUCUGCGAAUUCUGCUGU | 0.322
GGGUGCCACAGCAGAAGCGUUCACGUCGCGGCCCGUGUCAGAUUCUGGUGAAUCUGCGAAUUCUGCUGU | 0.101
GGGUGCCACAGCAGAAGCGUUCACGUCGCGGCCCUUGUCAGAUUCUGGUGAAUCUGCGAAUUCUGCUGU | 0.128
GGGUGCCACAGCAGAAGCGUUCACGUCGCGGCCCAUGUCAGAUUCUGGUGAAUCUGCGAAUUCUGCUGU | 0.114
